T1: Peptide 8: Biotin-AEAAAKEAAAKEAAAKEAAAKAAA-Tyr-acid (N-terminal biotin; C-terminal acid; no PC)
T1 construct: control peptide without PC
T1 peptide: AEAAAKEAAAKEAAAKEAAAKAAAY

T2: Peptide 4: Biotin-AGGGGSGGGGSGGGGSAAA-Tyr-acid (N-terminal biotin; C-terminal acid; no PC)
T2 construct: control peptide without PC
T2 peptide: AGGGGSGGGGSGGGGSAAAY

B1: PcOxP_DB01_G05 (human IgG1) (antibody, V domains shown)
VH: EVQLLESGGGLVQPGGSLRLSCAASGFTFSSYYMEWVRQAPGKGLEWVAASRNKANEYTTEYADSVKGRFTISRDNSKNTLYLQMNSLRAEDTAVYYCARDYYGSSYWYFDVWGQGTLVTVSS
VL: DIVMTQSPDSLAVSLGERATINCTASESLYSSKHKVHYLAWYQQKPGQPPKLLIYGASNRYIGVPDRFSGSGSGTDFTLTISSLQAEDVAVYYCANFYSYPLTFGGGTKVEIK
B2: PcOxP_DB01_A06 (human IgG1) (antibody, V domains shown)
VH: B1 VH with S31D, E57D
VL: DIQMTQSPSSLSASVGDRVTITCTASESLYSSKHKVHYLAWYQQKPGKAPKLLIYGASNRYIGVPSRFSGSGSGTDFTLTISSLQPEDFATYYCAEFYSYPLTFGGGTKVEIK
B3: PcOxP_DB03_H08 (human IgG1) (antibody, V domains shown)
VH: B1 VH with F27G, S31D, Y32F, E57T
VL: B2 VL with A57S, E96Q, S99Q
B4: PcOxP_DB03_B11 (human IgG1) (antibody, V domains shown)
VH: B1 VH with S31D, Y32F, M34V, E57T
VL: B1 VL with S58Q, A95G, N96Q
B5: PcOxP_DB04_E05 (human IgG1) (antibody, V domains shown)
VH: B1 VH with F27N, S31D, Y32F, E57Y
VL: B1 VL with N96Q
B6: PcOxP_DB01_G09 (human IgG1) (antibody, V domains shown)
VH: B1 VH with S31D, E57T
VL: B2 VL with R60L, I62S, E96Q
B7: PcOxP_DB01_H01 (human IgG1) (antibody, V domains shown)
VH: B1 VH with E57L, Y107T
VL: B1 VL with N96Q
B8: PcOxP_DB04_A11 (human IgG1) (antibody, V domains shown)
VH: B1 VH with S31D, E57T
VL: B1 VL with L29V, Y30L, V36K, H37N, N59T, N96Q
B9: PcOxP_DB01_B09 (human IgG1) (antibody, V domains shown)
VH: B1 VH with S31D, E57D
VL: B2 VL with I62T, E96Q, S99H
B10: PcOxP_DB03_C10 (human IgG1) (antibody, V domains shown)
VH: B1 VH
VL: B1 VL with S58G, N96Q
B11: PcOxP_DB01_C04 (human IgG1) (antibody, V domains shown)
VH: B1 VH with T28Q, S31D, Y32F, E57D
VL: B2 VL with E96Q, S99Y
B12: PcOxP_DB02_E11 (scFv, V domains shown)
VH: B1 VH with S31D, Y32Q, E57D, T60V
VL: B1 VL with T24K, A25S, Y30L, S31Y, H34N, K35N, V36K, H37N, I62S, N96Q
notes: scFv in periplasmic extract
B13: PcOxP_DB02_E08 (scFv, V domains shown)
VH: B1 VH with S31D, Y32D, S51T, E57D, V112S
VL: B1 VL with N96Q
notes: scFv in periplasmic extract
B14: PcOxP_DB02_C10 (scFv, V domains shown)
VH: B1 VH with S31D, E57D
VL: B1 VL with N96Q, S99E
notes: scFv in periplasmic extract
B15: PcOxP_DB02_A05 (scFv, V domains shown)
VH: B1 VH with F29G, S31D, Y32F, A55W, E57D
VL: B1 VL with S58G, N96Q
notes: scFv in periplasmic extract
B16: PcOxP_DB02_E09 (scFv, V domains shown)
VH: B1 VH with S31D, N53W, E57D
VL: B1 VL with N59T, I62S, N96Q, S99T
notes: scFv in periplasmic extract
B17: PcOxP_DB02_C05 (scFv, V domains shown)
VH: B1 VH with F29A, S31D, Y32F, E57D
VL: B1 VL with N96Q
notes: scFv in periplasmic extract
B18: PcOxP_DB02_D02 (scFv, V domains shown)
VH: B1 VH with S31D, E57D, V112T
VL: B1 VL with A25S, L29V, K33S, N96Q, S99Y
notes: scFv in periplasmic extract
B19: PcOxP_DB02_C03 (scFv, V domains shown)
VH: B1 VH with S31D, N53W, E57D
VL: B1 VL with N96Q, S99V
notes: scFv in periplasmic extract
B20: PcOxP_DB02_E02 (scFv, V domains shown)
VH: B1 VH with S31D, Y32E, K54S, A55G, E57S, E61A
VL: B1 VL with N96Q
notes: scFv in periplasmic extract
B21: PcOxP_DB02_B04 (scFv, V domains shown)
VH: B1 VH with S31D, A55W, E57D
VL: B1 VL with N96Q
notes: scFv in periplasmic extract
B22: PcOxP_DB02_D03 (scFv, V domains shown)
VH: B1 VH with F29Q, S31D, Y32F, E57A, S105Y
VL: B1 VL with A57N, A95G, N96Q
notes: scFv in periplasmic extract
B23: PcOxP_DB02_C12 (scFv, V domains shown)
VH: B1 VH with S31D, Y32H, E57D
VL: B1 VL with S58H
notes: scFv in periplasmic extract
B24: PcOxP_DB02_C08 (scFv, V domains shown)
VH: B1 VH with S31D, Y32P, E57D, S106P
VL: B1 VL with T24G, H34S, N96Q
notes: scFv in periplasmic extract
B25: PcOxP_DB02_C04 (scFv, V domains shown)
VH: B1 VH with F27Q, S31D, Y32F, E57G, A63T
VL: B1 VL with S58N, N96Q
notes: scFv in periplasmic extract
B26: PcOxP_DB02_E03 (scFv, V domains shown)
VH: B1 VH with S31D, N53W, E57D, Y107Q
VL: B1 VL with V36K, H37N, N59W, N96Q
notes: scFv in periplasmic extract
B27: PcOxP_DB02_B07 (scFv, V domains shown)
VH: B1 VH with S31D, Y32Q, K54N, E57D
VL: B1 VL with Y61Q, N96Q, S99H
notes: scFv in periplasmic extract

Usually EC50 stands for the midpoint of the concentration-response curve. Higher therefore signals lower potency in that assay.

Numbering of substitutions follows the chain as printed.

Chain of BSA (P02769 25-607 limits assumed): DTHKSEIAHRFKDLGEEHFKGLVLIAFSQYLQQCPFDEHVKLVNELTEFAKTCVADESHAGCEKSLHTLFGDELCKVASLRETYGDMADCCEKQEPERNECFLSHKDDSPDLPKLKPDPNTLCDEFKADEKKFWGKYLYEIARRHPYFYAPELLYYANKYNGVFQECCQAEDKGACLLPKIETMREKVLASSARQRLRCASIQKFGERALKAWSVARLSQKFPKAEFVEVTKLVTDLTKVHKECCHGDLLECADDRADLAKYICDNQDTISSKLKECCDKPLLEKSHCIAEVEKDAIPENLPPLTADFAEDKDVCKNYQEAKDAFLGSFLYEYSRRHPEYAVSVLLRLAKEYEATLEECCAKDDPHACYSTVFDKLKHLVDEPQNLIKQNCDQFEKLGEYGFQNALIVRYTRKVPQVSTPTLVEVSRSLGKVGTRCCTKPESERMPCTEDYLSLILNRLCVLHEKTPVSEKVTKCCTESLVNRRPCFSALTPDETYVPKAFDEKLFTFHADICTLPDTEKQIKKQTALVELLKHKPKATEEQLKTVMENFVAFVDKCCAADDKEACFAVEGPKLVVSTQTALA
Chain of PC-BSA (P02769 25-607 limits assumed, form in doubt): as the sequence (P02769 25-607 limits assumed) above

The first assay addresses PC-BSA. As to the kind of experiment: ELISA (DELFIA TRF), PC-BSA coated, titrated IgG1. (In general: ELISA stands for enzyme-linked immunosorbent assay.)
The molecule E06 parental IgG1 (antibody) had an EC50 of 0.39 nM.

The molecule B1 returned an EC50 of 0.263 nM.

Molecule B2 showed an EC50 of 0.43 nM. This EC50 is about 1.6-fold higher than that of the molecule before.

Molecule B3 registered an EC50 of 0.445 nM.

For B4, the EC50 was 0.299 nM. This EC50 and that of the molecule before are within 1.5-fold of each other.

B5 displayed a 50% effective concentration (EC50) of 0.282 nM.

B6 displayed an EC50 of 0.308 nM.

B7: the EC50 was 0.275 nM. The EC50 values of the last two molecules are within 1.5-fold of each other.

In turn, B8 had an EC50 of 0.413 nM.

In turn, B9 came in with an EC50 of 0.317 nM.

B10 gave an EC50 of 0.285 nM. This EC50 and that of the molecule before are within 1.5-fold of each other.

In turn, B11 had an EC50 of 0.31 nM.

In the next assay the target is T1, Peptide 8: …. As to the kind of experiment: scFv ELISA. The essentials:
(§1)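 Bound scFv was read as OD450 after HRP–anti-V5 detection, TMB development and HCl stop. PPE with BSA was incubated 1 h at RT on BSA-blocked wells coated overnight at 4° C. with peptide, or on streptavidin wells loaded 1 h with biotinylated PC-peptides at 1 μg/mL.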
Take B12: the OD450 was found to be 0.04 OD450.

The molecule B13 displayed an OD450 of 0.04 OD450.

With B14, the OD450 came out at 0.04 OD450.

With B15, the OD450 was 0.04 OD450.

For B16, the OD450 worked out at 0.04 OD450.

Regarding B17, the OD450 came out at 0.04 OD450.

The molecule B18 had an OD450 of 0.04 OD450.

With B19, the OD450 turned out to be 0.05 OD450.

As to B20, the OD450 is 0.05 OD450.

For the molecule B21, the OD450 came out at 0.04 OD450.

For the molecule B22, the OD450 turned out to be 0.04 OD450.

In turn, B23 showed an OD450 of 0.04 OD450.

Consider B24, for which the OD450 is 0.04 OD450.

For the molecule B25, the OD450 was 0.05 OD450.

As for B26, the OD450 came out at 0.05 OD450.

Consider B27, for which the OD450 worked out at 0.04 OD450.

The target in the next assay is T2, Peptide 4: …. As to the kind of experiment: scFv ELISA. The essentials:
as §1
For B12, the OD450 worked out at 0.04 OD450.

Take B13: the OD450 worked out at 0.04 OD450.

The molecule B14 showed an OD450 of 0.04 OD450.

B15 yielded an OD450 of 0.05 OD450.

Regarding B16, the OD450 was 0.04 OD450.

The molecule B17 yielded an OD450 of 0.04 OD450.

In the case of B18, the OD450 worked out at 0.04 OD450.

The molecule B19 returned an OD450 of 0.05 OD450.

In turn, B20 yielded an OD450 of 0.04 OD450.

In the case of B21, the OD450 stood at 0.05 OD450.

Molecule B22 came in with an OD450 of 0.04 OD450.

Molecule B23 registered an OD450 of 0.04 OD450.

As for B24, the OD450 stood at 0.06 OD450.

In turn, B25 displayed an OD450 of 0.05 OD450.

With B26, the OD450 turned out to be 0.04 OD450.

With B27, the OD450 is 0.04 OD450.

Another assay addresses Peptide 5: Biotin-…-[Tyr(PC)]-acid. As to the kind of experiment: scFv ELISA.
Regarding B12, the OD450 came to 0.76 OD450.

In turn, B13 showed an OD450 of 0.49 OD450.

The molecule B14 returned an OD450 of 0.92 OD450.

For B15, the OD450 amounted to 1.24 OD450.

As for B16, the OD450 amounted to 0.74 OD450.

In turn, B17 registered an OD450 of 0.92 OD450.

As to B18, the OD450 stood at 0.27 OD450.

Regarding B19, the OD450 was 0.61 OD450.

As to B20, the OD450 was 0.34 OD450.

Molecule B21 registered an OD450 of 1.32 OD450.

B22: the OD450 came out at 0.71 OD450.

B23 displayed an OD450 of 1.58 OD450.

The molecule B24 gave an OD450 of 0.39 OD450.

Molecule B25 registered an OD450 of 0.75 OD450.

Molecule B26 had an OD450 of 0.75 OD450.

The molecule B27 yielded an OD450 of 0.77 OD450.

Another assay has as its target Peptide 1: Biotin-…-[Tyr(PC)]-acid. Briefly: scFv ELISA.
With B12, the OD450 was determined as 0.23 OD450.

B13 registered an OD450 of 0.24 OD450.

B14: the OD450 worked out at 0.44 OD450.

The molecule B15 gave an OD450 of 0.99 OD450.

Turning to B16, the OD450 turned out to be 0.56 OD450.

Turning to B17, the OD450 was determined as 0.64 OD450.

B18 yielded an OD450 of 0.16 OD450.

Molecule B19 displayed an OD450 of 0.54 OD450.

Regarding B20, the OD450 stood at 0.09 OD450.

Turning to B21, the OD450 amounted to 0.75 OD450.

Molecule B22 returned an OD450 of 0.42 OD450.

In turn, B23 yielded an OD450 of 0.97 OD450.

The molecule B24 returned an OD450 of 0.22 OD450.

Molecule B25 displayed an OD450 of 0.37 OD450.

B26 registered an OD450 of 0.39 OD450.

Take B27: the OD450 is 0.4 OD450.

The next assay addresses BSA (UniProt P02769). Briefly: scFv ELISA.
The molecule B12 showed an OD450 of 0.06 OD450.

In turn, B13 yielded an OD450 of 0.07 OD450.

B14 showed an OD450 of 0.06 OD450.

With B15, the OD450 stood at 0.07 OD450.

Take B16: the OD450 amounted to 0.07 OD450.

For B17, the OD450 is 0.06 OD450.

B18 displayed an OD450 of 0.05 OD450.

As to B19, the OD450 came to 0.1 OD450.

The molecule B20 came in with an OD450 of 0.06 OD450.

In the case of B21, the OD450 came out at 0.08 OD450.

On to B22, for which the OD450 was 0.08 OD450.

In turn, B23 came in with an OD450 of 0.07 OD450.

B24: the OD450 came to 0.06 OD450.

As for B25, the OD450 stood at 0.08 OD450.

With B26, the OD450 worked out at 0.08 OD450.

In the case of B27, the OD450 came to 0.06 OD450.
